Results reported in the supplement of paper PMC11316812.
± gives the standard deviation of the averaged measurements.

Columns and labels:
[1] = system: hTERT-HMEC; assay: percentage of EdU-negative (G0-arrested) nuclei per well, 72 h; higher = more G0 arrest; settings: reference: sequence is the full UniProt precursor, the tested protein was the secreted form or ectodomain
[2] = system: MCF7; assay: as above; settings: reference: sequence is the full UniProt precursor, the tested protein was the secreted form or ectodomain
[3] = protein concentration 0.00914286 µM
[4] = protein concentration 0.0914286 µM
[5] = protein concentration 0.0292375 µM
[6] = protein concentration 0.292375 µM
[7] = protein concentration 0.0225 µM
[8] = protein concentration 0.022125 µM
[9] = protein concentration 0.22125 µM
[10] = protein concentration 0.03125 µM
[11] = protein concentration 0.3125 µM
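Note: secreted proteins added to cultured cells, EdU pulse at the end, nuclei found by Hoechst imaging, EdU status from nuclear versus surrounding ring intensity ratio, PBS as neutral control.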

## MDLWNLSWFLFLDALLVISGLATPENFDVDGGMDQDIFDINEGLGLDLFEGDIRLDRAQIRNSIIGEKYRWPHTIPYVLEDSLEMNAKGVILNAFERYRLKTCIDFKPWAGETNYISVFKGSGCWSSVGNRRVGKQELSIGANCDRIATVQHEFLHALGFWHEQSRSDRDDYVRIMWDRILSGREHNFNTYSDDISDSLNVPYDYTSVMHYSKTAFQNGTEPTIVTRISDFEDVIGQRMDFSDSDLLKLNQLYNCSSSLSFMDSCSFELENVCGMIQSSGDNADWQRVSQVPRGPESDHSNMGQCQGSGFFMHFDSSSVNVGATAVLESRTLYPKRGFQCLQFYLYNSGSESDQLNIYIREYSADNVDGNLTLVEEIKEIPTGSWQLYHVTLKVTKKFRVVFEGRKGSGASLGGLSIDDINLSETRCPHHIWHIRNFTQFIGSPNGTLYSPPFYSSKGYAFQIYLNLAHVTNAGIYFHLISGANDDQLQWPCPWQQATMTLLDQNPDIRQRMSNQRSITTDPFMTTDNGNYFWDRPSKVGTVALFSNGTQFRRGGGYGTSAFITHERLKSRDFIKGDDVYILLTVEDISHLNSTQIQLTPAPSVQDLCSKTTCKNDGVCTVRDGKAECRCQSGEDWWYMGERCEKRGSTRDTIVIAVSSTVAVFALMLIITLVSVYCTRKKYRERMSSNRPNLTPQNQHAF
[1]; [3]
  percentage of EdU-negative: 6.01 ± 0.12%
[1]; [4]
  percentage of EdU-negative: 6.74 ± 0.94%
[2]; [3]
  percentage of EdU-negative: 24.7 ± 3.1%
[2]; [4]
  percentage of EdU-negative: 27.5 ± 1.1%

## MDLWQLLLTLALAGSSDAFSGSEATAAILSRAPWSLQSVNPGLKTNSSKEPKFTKCRSPERETFSCHWTDEVHHGTKNLGPIQLFYTRRNTQEWTQEWKECPDYVSAGENSCYFNSSFTSIWIPYCIKLTSNGGTVDEKCFSVDEIVQPDPPIALNWTLLNVSLTGIHADIQVRWEAPRNADIQKGWMVLEYELQYKEVNETKWKMMDPILTTSVPVYSLKVDKEYEVRVRSKQRNSGNYGEFSEVLYVTLPQMSQFTCEEDFYFPWLLIIIFGIFGLTVMLFVFLFSKQQRIKMLILPPVPVPKIKGIDPDLLKEGKLEEVNTILAIHDSYKPEFHSDDSWVEFIELDIDEPDEKTEESDTDRLLSSDHEKSHSNLGVKDGDSGRTSCCEPDILETDFNANDIHEGTSEVAQPQRLKGEADLLCLDQKNQNNSPYHDACPATQQPSVIQAEKNKPQPLPTEGAESTHQAAHIQLSNPSSLSNIDFYAQVSDITPAGSVVLSPGQKNKAGMSQCDMHPEMVSLCQENFLMDNAYFCEADAKKCIPVAPHIKVESHIQPSLNQEDIYITTESLTTAAGRPGTGEHVPGSEMPVPDYTSIHIVQSPQGLILNATALPLPDKEFLSSCGYVSTDQLNKIMP
[1]; [5]
  percentage of EdU-negative: 4.42 ± 0.8%
[1]; [6]
  percentage of EdU-negative: 6.44 ± 1.3%
[2]; [5]
  percentage of EdU-negative: 25 ± 3.3%
[2]; [6]
  percentage of EdU-negative: 24.5 ± 1.6%

## MDMAWQMMQLLLLALVTAAGSAQPRSARARTDLLNVCMNAKHHKTQPSPEDELYGQCSPWKKNACCTASTSQELHKDTSRLYNFNWDHCGKMEPTCKRHFIQDSCLYECSPNLGPWIRQVNQSWRKERILNVPLCKEDCERWWEDCRTSYTCKSNWHKGWNWTSGINECPAGALCSTFESYFPTPAALCEGLWSHSFKVSNYSRGSGRCIQMWFDSAQGNPNEEVAKFYAAAMNAGAPSRGIIDS [A0A087WXL1]
[1]; [7]
  percentage of EdU-negative: 5.28 ± 0.77%
[1]; protein concentration 0.225 µM
  percentage of EdU-negative: 4.93 ± 0.46%
[2]; [7]
  percentage of EdU-negative: 25.4 ± 0.5%
[2]; protein concentration 0.225 µM
  percentage of EdU-negative: 24 ± 1.3%

## MDMWTALLILQALLLPSLADGATPALRFVAVGDWGGVPNAPFHTAREMANAKEIARTVQILGADFILSLGDNFYFTGVQDINDKRFQETFEDVFSDRSLRKVPWYVLAGNHDHLGNVSAQIAYSKISKRWNFPSPFYRLHFKIPQTNVSVAIFMLDTVTLCGNSDDFLSQQPERPRDVKLARTQLSWLKKQLAAAREDYVLVAGHYPVWSIAEHGPTHCLVKQLRPLLATYGVTAYLCGHDHNLQYLQDENGVGYVLSGAGNFMDPSKRHQRKVPNGYLRFHYGTEDSLGGFAYVEISSKEMTVTYIEASGKSLFKTRLPRRARP
[1]; [8]
  percentage of EdU-negative: 4.67 ± 0.33%
[1]; [9]
  percentage of EdU-negative: 8.42 ± 0.15%
[2]; [8]
  percentage of EdU-negative: 24.4 ± 1.2%
[2]; [9]
  percentage of EdU-negative: 28.4 ± 1.4%

## MDPGLQQALNGMAPPGDTAMHVPAGSVASHLGTTSRSYFYLTTATLALCLVFTVATIMVLVVQRTDSIPNSPDNVPLKGGNCSEDLLCILKRAPFKKSWAYLQVAKHLNKTKLSWNKDGILHGVRYQDGNLVIQFPGLYFIICQLQFLVQCPNNSVDLKLELLINKHIKKQALVTVCESGMQTKHVYQNLSQFLLDYLQVNTTISVNVDTFQYIDTSTFPLENVLSIFLYSNSD
[1]; [7]
  percentage of EdU-negative: 4.46 ± 0.73%
[1]; protein concentration 0.225 µM
  percentage of EdU-negative: 6.03 ± 0.4%
[2]; [7]
  percentage of EdU-negative: 28 ± 0.99%
[2]; protein concentration 0.225 µM
  percentage of EdU-negative: 27.5 ± 1.8%

## MDPKGLLSLTFVLFLSLAFGASYGTGGRMMNCPKILRQLGSKVLLPLTYERINKSMNKSIHIVVTMAKSLENSVENKIVSLDPSEAGPPRYLGDRYKFYLENLTLGIRESRKEDEGWYLMTLEKNVSVQRFCLQLRLYEQVSTPEIKVLNKTQENGTCTLILGCTVEKGDHVAYSWSEKAGTHPLNPANSSHLLSLTLGPQHADNIYICTVSNPISNNSQTFSPWPGCRTDPSETKPWAVYAGLLGGVIMILIMVVILQLRRRGKTNHYQTTVEKKSLTIYAQVQKPGPLQKKLDSFPAQDPCTTIYVAATEPVPESVQETNSITVYASVTLPES
[1]; [7]
  percentage of EdU-negative: 5.0759 ± 0.002%
[1]; protein concentration 0.225 µM
  percentage of EdU-negative: 5.04 ± 0.53%
[2]; [7]
  percentage of EdU-negative: 24.3 ± 0.12%
[2]; protein concentration 0.225 µM
  percentage of EdU-negative: 23.1 ± 0.27%

## MDPKLGRMAASLLAVLLLLLERGMFSSPSPPPALLEKVFQYIDLHQDEFVQTLKEWVAIESDSVQPVPRFRQELFRMMAVAADTLQRLGARVASVDMGPQQLPDGQSLPIPPVILAELGSDPTKGTVCFYGHLDVQPADRGDGWLTDPYVLTEVDGKLYGRGATDNKGPVLAWINAVSAFRALEQDLPVNIKFIIEGMEEAGSVALEELVEKEKDRFFSGVDYIVISDNLWISQRKPAITYGTRGNSYFMVEVKCRDQDFHSGTFGGILHEPMADLVALLGSLVDSSGHILVPGIYDEVVPLTEEEINTYKAIHLDLEEYRNSSRVEKFLFDTKEEILMHLWRYPSLSIHGIEGAFDEPGTKTVIPGRVIGKFSIRLVPHMNVSAVEKQVTRHLEDVFSKRNSSNKMVVSMTLGLHPWIANIDDTQYLAAKRAIRTVFGTEPDMIRDGSTIPIAKMFQEIVHKSVVLIPLGAVDDGEHSQNEKINRWNYIEGTKLFAAFFLEMAQLH [Q96KN2]
[1]; [10]
  percentage of EdU-negative: 5.23 ± 0.23%
[1]; [11]
  percentage of EdU-negative: 5.9 ± 0.65%
[2]; [10]
  percentage of EdU-negative: 24.9 ± 0.15%
[2]; [11]
  percentage of EdU-negative: 23 ± 2.2%
